Reference: US20200239573A1 (CRESCENDO BIOLOGICS, published 2020)
Substitutions are numbered along the chain they refer to. “And” between values parts separate entries of the source, which are not always exact repeats. Equal entries are not always repeated.

B1: Humabody® 1.69 (VHH)
VHH: QVQLVESGGGLVKPGGSLRLSCAASGFTFSDNSMSWMRQAPGKGLEWVSYISSGGGVIFYADSVKGRFTISRDNAKNSLYLQMNSLRADDTAVYYCAREAPLRLGESPHDAFDISGQGTMVTVSS
B2: Humabody® 1.72 (VHH)
VHH: B1 VHH with N32S
B3: Humabody® 1.70 (VHH)
VHH: B1 VHH with S30G, N32S, S35T, G56A, I58K, A61T
B4: Humabody® 1.67 (VHH)
VHH: B1 VHH with D31G, N32S, S35T
B5: Humabody® 1.71 (VHH)
VHH: B1 VHH with S30G, D31G, N32S, S35T, I58K, A61T
B6: Humabody® 1.58 (VHH)
VHH: B1 VHH with S33T, S35T, S53T, I58K, S115W
notes: human VH single domain antibody
B7: Humabody® 1.47 (VHH)
VHH: B1 VHH with S115W
notes: as for B6
B8: Humabody® 1.42 (VHH)
VHH: B1 VHH with S35T, I58K, S115W
notes: as for B6
B9: Humabody® 1.53 (VHH)
VHH: B1 VHH with S35T, G56S, I58K, S115W
notes: as for B6
B10: Humabody® 1.51 (VHH)
VHH: B1 VHH with N32S, S35T, G56A, I58K, A61T, S115W
notes: as for B6
B11: Humabody® 1.59 (VHH)
VHH: B1 VHH with G56S, I58K, S115W
notes: as for B6
B12: Humabody® 1.44 (VHH)
VHH: B1 VHH with S35T, G56A, I58K, S115W
notes: as for B6
B13: Humabody® 1.48 (VHH)
VHH: B1 VHH with N32S, S35T, I58K, S115W
notes: as for B6
B14: Humabody® 1.89 (VHH)
VHH: B1 VHH with Q1E, N32Y, S35T, I58K, D89E
notes: as for B6
B15: Humabody® 1.46 (VHH)
VHH: B1 VHH with N32S, S115W
notes: as for B6
B16: Humabody® 1.43 (VHH)
VHH: B1 VHH with N32S, S35T, S115W
notes: as for B6
B17: Humabody® 1.45 (VHH)
VHH: B1 VHH with N32Y, S115W
notes: as for B6
B18: Humabody® 1.3 (VHH)
VHH: B1 VHH with N32Y, S33T, S35T, S53T, G56S, V57I, I58K, F59Y, A61T, S115W
notes: as for B6
B19: Humabody® 1.10 (VHH)
VHH: B1 VHH with N32Y, S33T, V48I, S53L, G56N, V57T, I58K, F59Y, A61T, S115W
notes: as for B6
B20: Humabody® 1.6 (VHH)
VHH: EVQLLESGGGLVKPGGSLRLSCAASGFTFSDYTMTWMRQAPGKGLEWVSYISTGGTIKYYTDSVKGRFTISRDNAKNSLYLQMSSLRADDTAVYYCAREAPLRLGESPHDAFDIWGQGTMVTVSS
notes: as for B6
B21: Humabody® 1.8 (VHH)
VHH: B20 VHH with L5V, T56S, S84N, D89G
notes: as for B6
B22: Humabody® 1.7 (VHH)
VHH: B20 VHH with L5V, S84N
notes: as for B6
B23: Humabody® 1.56 (VHH)
VHH: B1 VHH with S35T, G56A, I58K, S115L
notes: as for B6
B24: Humabody® 1.55 (VHH)
VHH: B1 VHH with S35T, I58K
notes: as for B6
B25: Humabody® 1.52 (VHH)
VHH: B1 VHH with S35T, I58K, F59Y, S115W
notes: as for B6
B26: Humabody® 1.49 (VHH)
VHH: B1 VHH with N32S, S53T, I58K, S115W
notes: as for B6
B27: Humabody® 1.41 (VHH)
VHH: B1 VHH with S35T, S115W
notes: as for B6
B28: Humabody® 1.50 (VHH)
VHH: B1 VHH with S35T, G56T, V57I, I58K, S115W
notes: as for B6
B29: Humabody® 1.54 (VHH)
VHH: B1 VHH with N32D, S35T, S115W
notes: as for B6
B30: 1.77-4GS-non-blocking VH (3) (bispecific antibody)
chain: EVQLVESGGGLVKPGGSLRLSCAASGFTFSDSSMTWMRQAPGKGLEWVSYISSGGGVKFYTDSVKGRFTISRDNAKNSLYLQMNSLRAEDTAVYYCAREAPLRLGESPHDAFDISGQGTMVTVSSGGGGSGGGGSGGGGSGGGGSEVQLVESGGGLVQPGRSLRLSCAASGFTFDDYAMHWVRQAPGKDLEWVSGISWNGGSMGYAASVKGRFTISRDNAKNSLYLQMNSLRAEDTALYYCVREKGPGLTGSTADYYGLDVWGQGTMVTVSS
B31: Humabody® 1.84 (VHH)
VHH: B1 VHH with Q1E, N32E, S35T, I58K, A61T, D89E
notes: as for B6
B32: Humabody® 1.105 (VHH)
VHH: B1 VHH with Q1E, N32E, M34L, S35T, I58K, A61T, D89E
notes: as for B6
B33: Humabody® 1.104 (VHH)
VHH: B1 VHH with Q1E, N32E, M34F, S35T, I58K, A61T, D89E
notes: as for B6
B34: Humabody® 1.94 (VHH)
VHH: B1 VHH with Q1E, N32W, S35T, I58K, D89E
notes: as for B6
B35: Humabody® 1.101 (VHH)
VHH: B1 VHH with Q1E, N32F, S35T, I58K, D89E
notes: as for B6

Biological target: T1, human PD-1 expressed on cells (CHO human PD-1 cells) (human, UniProt Q15116 21-288)
Assay: cell-based or functional assay

T1 sequence (Q15116 21-288): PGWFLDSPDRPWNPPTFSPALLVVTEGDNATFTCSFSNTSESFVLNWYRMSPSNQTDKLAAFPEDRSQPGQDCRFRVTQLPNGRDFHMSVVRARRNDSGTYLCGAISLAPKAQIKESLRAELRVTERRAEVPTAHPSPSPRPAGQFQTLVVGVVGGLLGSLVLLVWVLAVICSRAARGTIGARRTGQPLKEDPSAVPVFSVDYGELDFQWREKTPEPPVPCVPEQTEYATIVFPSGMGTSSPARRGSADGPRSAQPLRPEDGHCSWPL

B1 and B2 are within 1.5-fold of each other in “Reporter Assay EC50” value: 35 nM for the first, 26.1 nM for the second.

Going from B3 to B4, the “Reporter Assay EC50” value falls from 29 nM to 12 nM (2.4-fold).

B5 and B6 are within 1.5-fold of each other in “Reporter Assay EC50” value: 7.43 nM for the first, 7.1 nM for the second.

First: B7
Second: B8
The “Reporter Assay EC50” value of the first is 3.1-fold higher: 27 nM for the first, 8.6 nM for the second.

Going from B9 to B10, the “Reporter Assay EC50” value rises from 14 nM to 23 nM (1.6-fold).

First: B11
Second: B12
The “Reporter Assay EC50” value of the first is 1.7-fold lower: 24 nM for the first, 41 nM for the second.

B13 and B14 are within 1.5-fold of each other in “Reporter Assay EC50” value: 18 nM for the first, 19 nM for the second.

First: B15
Second: B16
The “Reporter Assay EC50” value of the first is 3.8-fold higher: 45 nM for the first, 12 nM for the second.

In the case of B17, the “Reporter Assay EC50” value is reported as 74 nM.

Biological target: T2, recombinant human PD-1 Fc chimera (human, UniProt Q15116 25-167)
T2 construct: Bought protein; also called human PD-1-huFc; huPD-1-Fc; not shown: human Fc
Assay: HTRF inhibition; strep-tagged PD-L1 vs PD-1-Fc
Procedure: All samples and reagents were prepared in HTRF assay buffer containing PBS, 0.1% (w/v) BSA and 0.4M Potassium Fluoride. […] Total binding controls containing periplasmic extract sample buffer and non-specific binding controls containing excess untagged competitor were set up on each plate for data normalisation. Time-resolved fluorescent emission at 620 nm and 665 nm was measured following excitation at 337 nm on the BMG PHERAstar plate reader. Data was expressed as a % of the total binding control (% control) after subtraction of the background signal determined from the non-specific binding control wells.

T2 sequence (Q15116 25-167 limits assumed, change not shown): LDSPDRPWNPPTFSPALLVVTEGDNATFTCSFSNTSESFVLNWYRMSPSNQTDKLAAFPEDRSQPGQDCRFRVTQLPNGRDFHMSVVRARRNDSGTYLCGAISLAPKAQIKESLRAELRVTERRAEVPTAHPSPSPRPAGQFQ

Going from B18 to B19, the IC50 rises from 2.3 nM to 54.1 nM (24-fold). The first is the more potent here.

Going from B20 to B21, the IC50 rises from 13.1 nM to 28.8 nM (2.2-fold). The first is the more potent here.

For B22, the IC50 was 4.4 nM.

Biological target: T2, recombinant human PD-1 Fc chimera
Assay: SPR Biacore T200, PD-1-huFc amine-coupled, single cycle kinetics
Procedure: Binding kinetics of certain VH single domain antibodies binding to human PD-1-huFc were measured by surface plasmon resonance (SPR) technology using Biacore T200 instrument (GE Healthcare). Recombinant human PD-1-huFc was immobilized by standard amine coupling to CM5 sensorschip (GE Healthcare) using in range of 0.1-0.01 mg/ml solution of antigen in 10 mM sodium acetate at pH 5.5. For the reference flow cell, a blank immobilisation was carried out. Single cycle kinetics assays were used to study the interaction, a five point, three-fold dilution series of each Humabody® was made with a top concentration of 30 nM. The binding kinetics were followed by flowing the Humabody® over the chip surface in HBS EP+ buffer at a flow rate of 30 μl/min. The contact time for each of the association steps was 180 seconds and the dissociation step was varied between 1200-3600 seconds. The data was fitted to a 1:1 binding model after double reference subtraction using the Biacore T200 Evaluation software.

B23 and B8 are within 1.5-fold of each other in Kd: 0.0355 nM for the first, 0.0505 nM for the second.

Going from B24 to B10, the Kd rises from 0.0364 nM to 0.317 nM (8.7-fold). The first binds more tightly here.

B13 and B26 are within 1.5-fold of each other in Kd: 0.106 nM for the first, 0.11 nM for the second.

B16 and B27 are within 1.5-fold of each other in Kd: 0.0681 nM for the first, 0.0552 nM for the second.

B28 and B29 are within 1.5-fold of each other in Kd: 0.0581 nM for the first, 0.0856 nM for the second.

Compared with B23, B8 is 1.8-fold higher in koff: 1.53e-05 s⁻¹ for the first, 2.69e-05 s⁻¹ for the second.

Compared with B24, B10 is 3.1-fold higher in koff: 1.95e-05 s⁻¹ for the first, 5.98e-05 s⁻¹ for the second.

Going from B13 to B26, the koff falls from 5.24e-05 s⁻¹ to 2.89e-05 s⁻¹ (1.8-fold).

B16 and B27 are within 1.5-fold of each other in koff: 2.79e-05 s⁻¹ for the first, 2.96e-05 s⁻¹ for the second.

First: B28
Second: B29
The koff of the first is 1.9-fold lower: 2.34e-05 s⁻¹ for the first, 4.53e-05 s⁻¹ for the second.

B23 and B8 are within 1.5-fold of each other in kon: 432000 M⁻¹ s⁻¹ for the first, 532000 M⁻¹ s⁻¹ for the second.

Going from B24 to B10, the kon falls from 535000 M⁻¹ s⁻¹ to 189000 M⁻¹ s⁻¹ (2.8-fold).

Compared with B13, B26 is 1.9-fold lower in kon: 496000 M⁻¹ s⁻¹ for the first, 263000 M⁻¹ s⁻¹ for the second.

B16 and B28 are within 1.5-fold of each other in kon: 410000 M⁻¹ s⁻¹ for the first, 402000 M⁻¹ s⁻¹ for the second.

In the case of B29, the kon is reported as 530000 M⁻¹ s⁻¹.

B25 was tested, and the Kd was 0.299 nM and 0.256 nM.
For B12, the Kd was 0.2 nM and 0.17 nM.

B25 was tested, and the koff was 6.14e-05 s⁻¹ and 7.61e-05 s⁻¹.
In the case of B12, the koff is reported as 4.18e-05 s⁻¹ and 4e-05 s⁻¹.

B25 was tested, and the kon was 205000 M⁻¹ s⁻¹ and 297000 M⁻¹ s⁻¹.
In the case of B12, the kon is reported as 209000 M⁻¹ s⁻¹ and 235000 M⁻¹ s⁻¹.

Biological target: T3, Strep tagged recombinant human PD-1 (human, UniProt Q15116 25-170, limits assumed)
T3 construct: the whole entry is named; also called strep tagged human PD-1; not shown: Strep tag
Assay: SPR Biacore T200, strep-tagged PD-1 amine-coupled, single cycle kinetics
Procedure: Single cycle kinetics assays were used to study the interaction between human PD-1 with Humabody® on a Biacore T200 instrument (GE Healthcare). Strep tagged recombinant human PD-1 was amine coupled to one flow cell of a CM-5 chip to create a low density surface (14 RU) using standard Biacore reagents. For the reference flow cell, a blank immobilisation was carried out. A five-point, three-fold dilution series of each Humabody® was made with a top concentration of 25 nM. The binding kinetics were followed by flowing the Humabody® over the chip surface in HBS EP+ buffer at a flow rate of 30 μl/min. The contact time for each of the association steps was 180 seconds and the dissociation step was 3300 seconds. The data was fitted to a 1:1 binding model after double reference subtraction using the Biacore T200 Evaluation software.

T3 sequence (Q15116 25-170 limits assumed): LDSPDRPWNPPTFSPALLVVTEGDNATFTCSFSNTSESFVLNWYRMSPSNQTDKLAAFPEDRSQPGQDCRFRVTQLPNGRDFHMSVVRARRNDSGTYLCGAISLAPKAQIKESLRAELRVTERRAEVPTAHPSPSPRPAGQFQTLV

B30 and B31 are within 1.5-fold of each other in Kd: 0.063 nM for the first, 0.091 nM for the second.

Going from B14 to B32, the Kd rises from 0.0342 nM to 0.091 nM (2.7-fold). The first binds more tightly here.

In the case of B33, the Kd is reported as 0.08 nM.

First: B30
Second: B31
The koff of the first is 2.2-fold lower: 3.5e-05 s⁻¹ for the first, 7.6e-05 s⁻¹ for the second.

Compared with B14, B32 is 1.6-fold higher in koff: 5.6e-05 s⁻¹ for the first, 8.7e-05 s⁻¹ for the second.

With B33 the koff was 6.3e-05 s⁻¹.

Going from B30 to B31, the kon rises from 550000 M⁻¹ s⁻¹ to 830000 M⁻¹ s⁻¹ (1.5-fold).

Going from B14 to B32, the kon falls from 1.6e+06 M⁻¹ s⁻¹ to 950000 M⁻¹ s⁻¹ (1.7-fold).

Work on B33 yielded a kon of 780000 M⁻¹ s⁻¹.

Biological target: T1, human PD-1 expressed on cells (CHO …)
Assay: FMAT epitope competition on CHO human PD-1 cells; competitor 1 nM 1.1-Strep
Procedure: For the epitope competition assay reagents were prepared in FMAT assay buffer. […] Plates were incubated for a minimum of 1.5 hours at room temperature then fluorescence measured in the FL2 (502 nm-537 nm) and FL5 (677-800 nm) channels on the Mirrorball plate reader (TTP) following excitation at 488 nm and 640 nm. Data was expressed as a % of the total binding control (i.e. % control) after subtraction of the background signal determined from the non-specific binding control wells.

B6 and B7 are within 1.5-fold of each other in IC50: 4.6 nM for the first, 4.4 nM for the second.

First: B8
Second: B9
The IC50 of the first is 1.5-fold lower: 3.5 nM for the first, 5.4 nM for the second. The first is the more potent here.

First: B10
Second: B11
The IC50 of the first is 1.7-fold lower: 4.7 nM for the first, 7.8 nM for the second.

B34 and B35 are within 1.5-fold of each other in IC50: 4.2 nM for the first, 3 nM for the second.

B12 and B14 are within 1.5-fold of each other in IC50: 1.9 nM for the first, 2.4 nM for the second.

B15 and B16 are within 1.5-fold of each other in IC50: 1.8 nM for the first, 1.3 nM for the second.

For B17, the IC50 was 2.5 nM.
